{"source": "patent US20250011363A1", "about": "“OPTIMIZED SHORTENED PEPTIDE THAT BINDS TO ACETYLCHOLINE RECEPTOR, AND USE THEREOF” (SKINMED CO., LTD., priority 2021, published 2025)"}
{"target": "acetylcholine receptor (Homo sapiens, UniProt P02708)", "sequence (P02708 21-457)": "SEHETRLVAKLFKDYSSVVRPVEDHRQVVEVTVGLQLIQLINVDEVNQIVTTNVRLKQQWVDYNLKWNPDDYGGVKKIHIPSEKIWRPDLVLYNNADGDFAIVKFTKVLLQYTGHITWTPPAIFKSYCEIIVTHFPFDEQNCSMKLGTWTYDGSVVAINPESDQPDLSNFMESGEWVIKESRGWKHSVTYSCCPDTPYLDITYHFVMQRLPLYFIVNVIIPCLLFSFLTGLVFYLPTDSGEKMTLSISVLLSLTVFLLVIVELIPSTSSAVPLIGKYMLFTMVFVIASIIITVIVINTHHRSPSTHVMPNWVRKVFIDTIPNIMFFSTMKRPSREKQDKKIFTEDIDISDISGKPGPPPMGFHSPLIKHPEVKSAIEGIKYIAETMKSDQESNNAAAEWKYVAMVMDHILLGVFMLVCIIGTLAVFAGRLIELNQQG", "test": "SPR binding affinity (RU) of optimized 5mer/6mer/7mer peptides, Examples 6-7", "settings": "SPR, peptides tested at 10 μM; 5mer Top sequence", "method": "Based on the frequencies of occurrence of the top 7 amino acids from Table 7 in Example 5, 600 peptides comprising these amino acids (top combinations) and those comprising the 13 less frequently occurring amino acids (bottom combinations) were synthesized for each series of 5mer, 6mer-1, and 6mer-2. The binding affinity of each sequence for the acetylcholine receptor was measured using Surface Plasmon Resonance (SPR) analysis method. The peptides were tested at a concentration of 10 μM. Additionally, the average binding affinities of the top and bottom combinations in each series are depicted in FIGS. 5-7.\nRepresentative peptides identified in Example 6, two in each library, including 5mers (73, 311) and 6mers-1 (43, 210) and 6mers-2 (136, 233), were compared with the pre-optimized 6mer, 5mer-ND, and Synake.", "units": {"Binding affinity": "Ru"}}
{"substance": "5mer-1 (RVQCK)", "Binding affinity": 54}
{"substance": "5mer-2 (KRISR)", "Binding affinity": 80}
{"substance": "5mer-3 (KRVLK)", "Binding affinity": 66}
{"substance": "5mer-4 (KRFLR)", "Binding affinity": 58}
{"substance": "5mer-5 (KLFLR)", "Binding affinity": 54}
{"substance": "5mer-6 (RWQQK)", "Binding affinity": 61}
{"substance": "5mer-7 (RQLTK)", "Binding affinity": 54}
{"substance": "5mer-8 (RQRSR)", "Binding affinity": 51}
{"substance": "5mer-9 (RGVQR)", "Binding affinity": 77}
{"substance": "5mer-10 (RVQRR)", "Binding affinity": 55}
{"substance": "5mer-11 (KQRLR)", "Binding affinity": 84}
{"substance": "5mer-12 (RVFLR)", "Binding affinity": 70}
{"substance": "5mer-13 (RLISK)", "Binding affinity": 52}
{"substance": "5mer-14 (RWLCK)", "Binding affinity": 63}
{"substance": "5mer-15 (KGVCK)", "Binding affinity": 75}
{"substance": "5mer-16 (KLYTK)", "Binding affinity": 66}
{"substance": "5mer-17 (KRIYK)", "Binding affinity": 70}
{"substance": "5mer-18 (RQLRR)", "Binding affinity": 69}
{"substance": "5mer-19 (KRFQR)", "Binding affinity": 72}
{"substance": "5mer-20 (RGRYK)", "Binding affinity": 78}
{"substance": "5mer-21 (KWFTR)", "Binding affinity": 63}
{"substance": "5mer-22 (RQQLK)", "Binding affinity": 66}
{"substance": "5mer-23 (KWLYK)", "Binding affinity": 86}
{"substance": "5mer-24 (KSQCR)", "Binding affinity": 67}
{"substance": "5mer-25 (KVVYK)", "Binding affinity": 60}
{"substance": "5mer-26 (RQQQR)", "Binding affinity": 65}
{"substance": "5mer-27 (KGYLR)", "Binding affinity": 67}
{"substance": "5mer-28 (RLLSR)", "Binding affinity": 74}
{"substance": "5mer-29 (KGFCR)", "Binding affinity": 63}
{"substance": "5mer-30 (KSQLR)", "Binding affinity": 70}
{"substance": "5mer-31 (RRLQR)", "Binding affinity": 65}
{"substance": "5mer-32 (RQLSR)", "Binding affinity": 75}
{"substance": "5mer-33 (RRISK)", "Binding affinity": 59}
{"substance": "5mer-34 (KRIRK)", "Binding affinity": 82}
{"substance": "5mer-35 (RWQYK)", "Binding affinity": 80}
{"substance": "5mer-36 (RRLQK)", "Binding affinity": 60}
{"substance": "5mer-37 (RRLSR)", "Binding affinity": 72}
{"substance": "5mer-38 (RGYCK)", "Binding affinity": 53}
{"substance": "5mer-39 (KQVSR)", "Binding affinity": 67}
{"substance": "5mer-40 (KSVCR)", "Binding affinity": 67}
{"substance": "5mer-41 (KVISK)", "Binding affinity": 82}
{"substance": "5mer-42 (RQRLR)", "Binding affinity": 83}
{"substance": "5mer-43 (KSFYR)", "Binding affinity": 53}
{"substance": "5mer-44 (RSRTR)", "Binding affinity": 59}
{"substance": "5mer-45 (RVFQR)", "Binding affinity": 86}
{"substance": "5mer-46 (KRQCK)", "Binding affinity": 76}
{"substance": "5mer-47 (KGVRR)", "Binding affinity": 70}
{"substance": "5mer-48 (RVYLR)", "Binding affinity": 62}
{"substance": "5mer-49 (KWRTR)", "Binding affinity": 62}
{"substance": "5mer-50 (KLLCR)", "Binding affinity": 63}
{"substance": "5mer-51 (RSLQR)", "Binding affinity": 70}
{"substance": "5mer-52 (RQQYK)", "Binding affinity": 50}
{"substance": "5mer-53 (RLVTR)", "Binding affinity": 50}
{"substance": "5mer-54 (KWLQR)", "Binding affinity": 66}
{"substance": "5mer-55 (RRFSR)", "Binding affinity": 58}
{"substance": "5mer-56 (KRFCK)", "Binding affinity": 59}
{"substance": "5mer-57 (KQLYR)", "Binding affinity": 73}
{"substance": "5mer-58 (KWVSK)", "Binding affinity": 75}
{"substance": "5mer-59 (KLQYR)", "Binding affinity": 68}
{"substance": "5mer-60 (RLFTK)", "Binding affinity": 86}
{"substance": "5mer-61 (RLILK)", "Binding affinity": 66}
{"substance": "5mer-62 (KQLTK)", "Binding affinity": 70}
{"substance": "5mer-63 (RLLRK)", "Binding affinity": 86}
{"substance": "5mer-64 (KVVTR)", "Binding affinity": 76}
{"substance": "5mer-65 (RQIRR)", "Binding affinity": 67}
{"substance": "5mer-66 (KRLLR)", "Binding affinity": 80}
{"substance": "5mer-67 (RQLYR)", "Binding affinity": 86}
{"substance": "5mer-68 (RGFYK)", "Binding affinity": 82}
{"substance": "5mer-69 (RSRSR)", "Binding affinity": 50}
{"substance": "5mer-70 (RLLQR)", "Binding affinity": 69}
{"substance": "5mer-71 (KLQSK)", "Binding affinity": 68}
{"substance": "5mer-72 (KLYRR)", "Binding affinity": 50}
{"substance": "5mer-74 (RQITK)", "Binding affinity": 87}
